From paper PMC11754109 (Nature, 2025)

Columns and labels:
[1] = biological target: Fe protein NifH2 of Mo-nitrogenase (Azotobacter vinelandii); test: SEC-MALS
[2] = biological target: the molecule itself; test: SEC-MALS

| stoichiometry N (chains per oligomer) [1] | stoichiometry N (NifH2 dimers per FeSII2 dimer) [1] | Molecule | stoichiometry N [2] |
| --- | --- | --- | --- |
| 2 | – | Fe protein NifH2 of Mo-nitrogenase (natural protein) | – |
| – | 1 | FeSII protein (Shethna protein II) of Azotobacter vinelandii (natural protein) MATIYFSSPLMPHNKKVQAVAGKRSTLLGVAQENGVKIPFECQDGNCGSCLVKITHLDGERIKGMLLTDKERNVLKSVGKLPKSEEERAAVRDLPPTYRLACQTIVTDEDLLVEFTGEPGGA | 2 chains per oligomer |
